In US20030092095:
Changes are numbered by the printed parent chain. Numbers in names are those of the source.

Assays:
[1] = molecular target: T1, GST-RIZ332 (GST fusion of human RIZ1 residues 1-332)
T1 chain: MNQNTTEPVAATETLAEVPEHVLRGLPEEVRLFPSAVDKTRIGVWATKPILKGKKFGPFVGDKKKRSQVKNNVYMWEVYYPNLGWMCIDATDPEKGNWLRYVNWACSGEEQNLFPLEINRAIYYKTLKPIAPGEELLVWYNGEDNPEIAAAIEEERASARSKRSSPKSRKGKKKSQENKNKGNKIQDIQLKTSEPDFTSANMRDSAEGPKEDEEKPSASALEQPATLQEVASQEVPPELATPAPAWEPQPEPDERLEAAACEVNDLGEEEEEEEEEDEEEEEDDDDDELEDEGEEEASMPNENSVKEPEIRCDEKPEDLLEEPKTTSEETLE

[2] = molecular target: histone H4 (free histones acid-extracted from human cancer cells A549 or U2OS), P62805
[3] = molecular target: histone H3 (free histones acid-extracted from human cancer cells A549 or U2OS), P68431
[4] = molecular target: H3 N terminus 1-20 residue peptide acetylated on K9 and K14, P68431
[5] = molecular target: histone H1 (free histones acid-extracted from human cancer cells A549 or U2OS), P07305
Chain of histone H1 (free histones acid-extracted from human cancer cells A549 or U2OS), P07305 (P07305 whole entry, looked up): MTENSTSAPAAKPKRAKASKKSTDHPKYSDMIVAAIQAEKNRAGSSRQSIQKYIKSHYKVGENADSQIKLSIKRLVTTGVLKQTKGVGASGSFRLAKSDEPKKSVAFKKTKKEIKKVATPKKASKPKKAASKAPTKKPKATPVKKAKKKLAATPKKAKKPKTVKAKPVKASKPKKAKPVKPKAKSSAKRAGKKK

[6] = molecular target: H3 N terminus 1-20 residue peptide (non-acetylated), P68431

B1: GSTRIZPBD, GST-hRIZ1(1514-1680) (GST fusion of the PR-binding domain of human RIZ1) (protein)
chain: HRRRTADAEIKMQSMQTPLGKTRARSSGPTQVPLPSSSFRSKQNVKFAASVKSKKPSSSSLRNSSPIRMAKITHVEGKKPKAVAKNHSAQLSSKTSRSLHVRVQKSKAVLQSKSTLASKKRTDRFNIKSRERSGGPVTRSLQLAAAADLSENKREDGSAKQELKDFS
For B1, the “histone methyltransferase activity in vitro with both proteins present” value [1] was “A synergistic enhancement (more than additive effects) of HMT activity was observed when GSTRIZ322 and GSTRIZPBD were both present in HMT reactions” and the “histone methyltransferase activity in vitro (3H-SAM, SDS-PAGE, fluorography)” value [2] was “GSTRIZPBD protein alone showed HMT activity, specifically on H4”.

B2: GST-RIZ161 (GST fusion of human RIZ1 residues 1-161) (protein)
chain: MNQNTTEPVAATETLAEVPEHVLRGLPEEVRLFPSAVDKTRIGVWATKPILKGKKFGPFVGDKKKRSQVKNNVYMWEVYYPNLGWMCIDATDPEKGNWLRYVNWACSGEEQNLFPLEINRAIYYKTLKPIAPGEELLVWYNGEDNPEIAAAIEEERASARS
In the case of B2, the “histone methyltransferase activity in vitro (3H-SAM, SDS-PAGE, fluorography)” value [2] is reported as “GST alone or a protein consisting of residues 1-161 lacked HMT activity”.

B3: full length RIZ1 protein expressed in mammalian cells from adenovirus AdRIZ1 (protein)
chain: MNQNTTEPVAATETLAEVPEHVLRGLPEEVRLFPSAVDKTRIGVWATKPILKGKKFGPFVGDKKKRSQVKNNVYMWEVYYPNLGWMCIDATDPEKGNWLRYVNWACSGEEQNLFPLEINRAIYYKTLKPIAPGEELLVWYNGEDNPEIAAAIEEERASARSKRSSPKSRKGKKKSQENKNKGNKIQDIQLKTSEPDFTSANMRDSAEGPKEDEEKPSASALEQPATLQEVASQEVPPELATPAPAWEPQPEPDERLEAAACEVNDLGEEEEEEEEEDEEEEEDDDDDELEDEGEEEASMPNENSVKEPEIRCDEKPEDLLEEPKTTSEETLEDCSEVTPAMQIPRTKEEANGDVFETFMFPCQHCERKFTTKQGLERHMHIHISTVNHAFKCKYCGKAFGTQINRRRHERRHEAGLKRKPSQTLQPSEDLADGKASGENVASKDDSSPPSLGPDCLIMNSEKASQDTINSSVVEENGEVKELHPCKYCKKVFGTHTNMRRHQRRVHERHLIPKGVRRKGGLEEPQPPAEQAQATQNVYVPSTEPEEEGEADDVYIMDISSNISENLNYYIDGKIQTNNNTSNCDVIEMESASADLYGINCLLTPVTVEITQNIKTTQVPVTEDLPKEPLGSTNSEAKKRRTASPPALPKIKAETDSDPMVPSCSLSLPLSISTTEAVSFHKEKSVYLSSKLKQLLQTQDKLTPAGISATEIAKLGPVCVSAPASMLPVTSSRFKRRTSSPPSSPQHSPALRDFGKPSDGKAAWTDAGLTSKKSKLESHSDSPAWSLSGRDERETVSPPCFDEYKMSKEWTASSAFSSVCNQQPLDLSSGVKQKAEGTGKTPVQWESVLDLSVHKKHCSDSEGKEFKESHSVQPTCSAVKKRKPTTCMLQKVLLNEYNGIDLPVENPADGTRSPSPCKSLEAQPDPDLGPGSGFPAPTVESTPDVCPSSPALQTPSLSSGQLPPLLIPTDPSSPPPCPPVLTVATPPPPLLPTVPLPAPSSSASPHPCPSPLSNATAQSPLPILSPTVSPSPSPIPPVEPLMSAASPGPPTLSSSSSSSSSSSSFSSSSSSSSPSPPPLSAISSVVSSGDNLEASLPMISFKQEELENEGLKPREEPQSAAEQDVVVQETFNKNFVCNVCESPFLSIKDLTKHLSIHAEEWPFKCEFCVQLFKDKTDLSEHRFLLHGVGNIFVCSVCKKEFAFLCNLQQHQRDLHPDKVCTHHEFESGTLRPQNFTDPSKAHVEHMQSLPEDPLETSKEEEELNDSSEELYTTIKIMASGIKTKDPDVRLGLNQHYPSFKPPPFQYHHRNPMGIGVTATNFTTHNIPQTFTTAIRCTKCGKGVDNMPELHKHILACASASDKKRYTPKKNPVPLKQTVQPKNGVVVLDNSGKNAFRRMGQPKRLNFSVELSKMSSNKLKLNALKKKNQLVQKAILQKNKSAKQKADLKNACESSSHICPYCNREFTYIGSLNKHAAFSCPKKPLSPPKKKVSHSSKKGGHSSPASSDKNSNSNHRRRTADAEIKMQSMQTPLGKTRARSSGPTQVPLPSSSFRSKQNVKFAASVKSKKPSSSSLRNSSPIRMAKITHVEGKKPKAVAKNHSAQLSSKTSRSLHVRVQKSKAVLQSKSTLASKKRTDRFNIKSRERSGGPVTRSLQLAAAADLSENKREDGSAKQELKDFSYSLRLASRCSPPAAPYITRQYRKVKAPAAAQFQGPFFKE
With B3 the “in vitro peptide methylation by RIZ1, then HPLC purification and sequencing” value (H1 peptide (aa 15-37)) was “A H1 peptide (aa 15-37) was methylated by RIZ1 in vitro ... lysine 25 was methylated by RIZ1”, the “histone methyltransferase activity of RIZ1 immunoprecipitates on free histones” value [3] was “Immunoprecipitated products by RIZ1 serum from RIZ1-expressing extracts caused methylation of H1, H3, and H4” and the “histone methyltransferase activity of RIZ1 immunoprecipitates on free histones” value [2] was “Immunoprecipitated products by RIZ1 serum from RIZ1-expressing extracts caused methylation of H1, H3, and H4”. The “in vitro peptide methylation by immunoprecipitated RIZ1” value [4] was “a peptide containing acetylated K9 and K14 was not methylated”, the “histone methyltransferase activity of RIZ1 immunoprecipitates on free histones” value [5] was “Immunoprecipitated products by RIZ1 serum from RIZ1-expressing extracts caused methylation of H1, H3, and H4” and the “in vitro peptide methylation by immunoprecipitated RIZ1, then peptide sequencing” value [6] was “A peptide consisting the N-terminal 1-20 residues of H3 was indeed methylated in vitro by immunoprecipitated RIZ1 protein ... A single radioactive peak at lysine 9 was observed”.

B4: GST-RIZ200 (GST fusion of human RIZ1 residues 1-200) (protein)
chain: MNQNTTEPVAATETLAEVPEHVLRGLPEEVRLFPSAVDKTRIGVWATKPILKGKKFGPFVGDKKKRSQVKNNVYMWEVYYPNLGWMCIDATDPEKGNWLRYVNWACSGEEQNLFPLEINRAIYYKTLKPIAPGEELLVWYNGEDNPEIAAAIEEERASARSKRSSPKSRKGKKKSQENKNKGNKIQDIQLKTSEPDFTSA
In the case of B4, the “histone methyltransferase activity in vitro (3H-SAM, SDS-PAGE, fluorography)” value [2] is reported as “Specific labeling of histone H4 was observed in the presence of purified GST product consisting of residues 1-200 of RIZ1”.

B5: GST-RIZ200 point mutant I188V (protein)
chain: B4 chain with I188V
B5 was tested, and the “histone methyltransferase activity in vitro (3H-SAM, SDS-PAGE, fluorography)” value [2] was “missense mutations found in tumors, C106Y, I188V, and A159V, abolished HMT activity”.

B6: GST-RIZ200 point mutant A159V (protein)
chain: B4 chain with A159V
B6 was tested, and the “histone methyltransferase activity in vitro (3H-SAM, SDS-PAGE, fluorography)” value [2] was “missense mutations found in tumors, C106Y, I188V, and A159V, abolished HMT activity”.

B7: GST-RIZ200 point mutant C106Y (protein)
chain: B4 chain with C106Y
With B7 the “histone methyltransferase activity in vitro (3H-SAM, SDS-PAGE, fluorography)” value [2] was “missense mutations found in tumors, C106Y, I188V, and A159V, abolished HMT activity”.

B8: GST-RIZ332 (GST fusion of human RIZ1 residues 1-332) (protein)
chain: T1 chain
In the case of B8, the “histone methyltransferase activity in vitro (3H-SAM, SDS-PAGE, fluorography)” value [2] is reported as “A GST fusion protein expressing the N-terminal 332-residue peptide showed similar activities to the N-terminal 200-residue peptide in methylating H4”.
